Measured values from publication PMC5319863 (Nature, 2016).
One block for each binder: values may come before it.

Tests used:
[1] = biological target: T1, human Izumo1_(22-254), wild type (human, UniProt Q8IYV9-1 22-254); experiment: BLI
[2] = biological target: H157A Izumo1_(22-254) (human, UniProt Q8IYV9-1 22-254, H157A); experiment: BLI
[3] = biological target: E71K Izumo1_(22-254) (human, UniProt Q8IYV9-1 22-254, E71K); experiment: BLI
[4] = biological target: R160E Izumo1_(22-254) (human, UniProt Q8IYV9-1 22-254, R160E); experiment: BLI
[5] = biological target: R160A Izumo1_(22-254) (human, UniProt Q8IYV9-1 22-254, R160A); experiment: BLI
[6] = biological target: D72A Izumo1_(22-254) (human, UniProt Q8IYV9-1 22-254, D72A); experiment: BLI
[7] = biological target: E71A Izumo1_(22-254) (human, UniProt Q8IYV9-1 22-254, E71A); experiment: BLI
[8] = biological target: Q130A Izumo1_(22-254) (human, UniProt Q8IYV9-1 22-254, Q130A); experiment: BLI
[9] = biological target: T1, human Izumo1_(22-254), wild type; experiment: SPR

Sequence of R160E Izumo1_(22-254) (Q8IYV9 22-254 R160E): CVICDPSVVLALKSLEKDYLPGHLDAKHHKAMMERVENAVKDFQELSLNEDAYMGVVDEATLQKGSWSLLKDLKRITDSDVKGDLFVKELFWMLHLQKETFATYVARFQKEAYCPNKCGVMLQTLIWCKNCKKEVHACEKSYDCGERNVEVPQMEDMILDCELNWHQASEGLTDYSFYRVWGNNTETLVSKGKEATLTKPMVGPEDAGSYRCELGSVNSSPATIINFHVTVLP
Sequence of Q130A Izumo1_(22-254) (Q8IYV9 22-254 Q130A): as the sequence (Q8IYV9 22-254 R160E) above, with Q109A, E139R counted along it
Sequence of E71A Izumo1_(22-254) (Q8IYV9 22-254 E71A): as the sequence (Q8IYV9 22-254 R160E) above, with E50A, E139R counted along it
Sequence of D72A Izumo1_(22-254) (Q8IYV9 22-254 D72A): as the sequence (Q8IYV9 22-254 R160E) above, with D51A, E139R counted along it
Sequence of H157A Izumo1_(22-254) (Q8IYV9 22-254 H157A): as the sequence (Q8IYV9 22-254 R160E) above, with H136A, E139R counted along it
Sequence of R160A Izumo1_(22-254) (Q8IYV9 22-254 R160A): as the sequence (Q8IYV9 22-254 R160E) above, with E139A counted along it
T1 sequence (Q8IYV9 22-254): as the sequence (Q8IYV9 22-254 R160E) above, with E139R counted along it
Sequence of E71K Izumo1_(22-254) (Q8IYV9 22-254 E71K): as the sequence (Q8IYV9 22-254 R160E) above, with E50K, E139R counted along it

B1: E45A Juno_(20-228) (domain or fragment, human, UniProt A6ND01-1 20-228, looked up)
chain: GDELLNICMNAKHHKRVPSPEDKLYAECIPWKDNACCTLTTSWEAHLDVSPLYNFSLFHCGLLMPGCRKHFIQAICFYECSPNLGPWIQPVGSLGWEVAPSGQGERVVNVPLCQEDCEEWWEDCRMSYTCKSNWRGGWDWSQGKNRCPKGAQCLPFSHYFPTPADLCEKTWSNSFKASPERRNSGRCLQKWFEPAQGNPNVAVARLFAS
modifications: biotinylated with the EZ link sulfo-NHS-LC-biotinylation kit (BLI)
Kd [1]: 681 nM
koff [1]: 0.0247 s⁻¹
kon [1]: 37000 M⁻¹ s⁻¹

B4: W62A Juno_(20-228) (domain or fragment, human, UniProt A6ND01-1 20-228, looked up)
chain: GDELLNICMNAKHHKRVPSPEDKLYEECIPWKDNACCTLTTSAEAHLDVSPLYNFSLFHCGLLMPGCRKHFIQAICFYECSPNLGPWIQPVGSLGWEVAPSGQGERVVNVPLCQEDCEEWWEDCRMSYTCKSNWRGGWDWSQGKNRCPKGAQCLPFSHYFPTPADLCEKTWSNSFKASPERRNSGRCLQKWFEPAQGNPNVAVARLFAS
modifications: biotinylated with the EZ link sulfo-NHS-LC-biotinylation kit (BLI)
Kd [1]: 361 nM
koff [1]: 0.0412 s⁻¹
kon [1]: 114000 M⁻¹ s⁻¹

B5: E45K Juno_(20-228) (domain or fragment, human, UniProt A6ND01-1 20-228, looked up)
chain: GDELLNICMNAKHHKRVPSPEDKLYKECIPWKDNACCTLTTSWEAHLDVSPLYNFSLFHCGLLMPGCRKHFIQAICFYECSPNLGPWIQPVGSLGWEVAPSGQGERVVNVPLCQEDCEEWWEDCRMSYTCKSNWRGGWDWSQGKNRCPKGAQCLPFSHYFPTPADLCEKTWSNSFKASPERRNSGRCLQKWFEPAQGNPNVAVARLFAS
modifications: biotinylated with the EZ link sulfo-NHS-LC-biotinylation kit (in the BLI assay only)
Kd [1]: 2800 nM
koff [1]: 0.0624 s⁻¹
kon [1]: 23000 M⁻¹ s⁻¹

The remaining lines, values ahead:

Kd [1]: 97 nM
koff [1]: 0.0133 s⁻¹
kon [1]: 138000 M⁻¹ s⁻¹
B2: K163A Juno_(20-228) (domain or fragment, human, UniProt A6ND01-1 20-228, looked up)
chain: GDELLNICMNAKHHKRVPSPEDKLYEECIPWKDNACCTLTTSWEAHLDVSPLYNFSLFHCGLLMPGCRKHFIQAICFYECSPNLGPWIQPVGSLGWEVAPSGQGERVVNVPLCQEDCEEWWEDCRMSYTCKSNWRGGWDWSQGANRCPKGAQCLPFSHYFPTPADLCEKTWSNSFKASPERRNSGRCLQKWFEPAQGNPNVAVARLFAS
modifications: biotinylated with the EZ link sulfo-NHS-LC-biotinylation kit (BLI)

Kd [2]: 1800 nM
koff [2]: 0.079 s⁻¹
kon [2]: 51000 M⁻¹ s⁻¹
Kd [3]: 119 nM
koff [3]: 0.0195 s⁻¹
kon [3]: 165000 M⁻¹ s⁻¹
Kd [4]: 2200 nM
koff [4]: 0.0512 s⁻¹
kon [4]: 32000 M⁻¹ s⁻¹
Kd [5]: 730 nM
koff [5]: 0.0563 s⁻¹
kon [5]: 78000 M⁻¹ s⁻¹
Kd [6]: 71 nM
koff [6]: 0.0126 s⁻¹
kon [6]: 178000 M⁻¹ s⁻¹
Kd [7]: 96 nM
koff [7]: 0.0137 s⁻¹
kon [7]: 143000 M⁻¹ s⁻¹
Kd [8]: 56 nM
koff [8]: 0.0068 s⁻¹
kon [8]: 127000 M⁻¹ s⁻¹
Kd [1]: 59 nM
koff [1]: 0.0067 s⁻¹
kon [1]: 115000 M⁻¹ s⁻¹
Kd [9]: 48 nM
koff [9]: 0.0194 s⁻¹
kon [9]: 420000 M⁻¹ s⁻¹
B3: human Juno_(20-228), wild type (domain or fragment, UniProt A6ND01-1 20-228, looked up)
chain: GDELLNICMNAKHHKRVPSPEDKLYEECIPWKDNACCTLTTSWEAHLDVSPLYNFSLFHCGLLMPGCRKHFIQAICFYECSPNLGPWIQPVGSLGWEVAPSGQGERVVNVPLCQEDCEEWWEDCRMSYTCKSNWRGGWDWSQGKNRCPKGAQCLPFSHYFPTPADLCEKTWSNSFKASPERRNSGRCLQKWFEPAQGNPNVAVARLFAS
modifications: biotinylated with the EZ link sulfo-NHS-LC-biotinylation kit (in the BLI assay only)

Kd [1]: 134 nM
koff [1]: 0.0242 s⁻¹
kon [1]: 181000 M⁻¹ s⁻¹
B6: K163E Juno_(20-228) (domain or fragment, human, UniProt A6ND01-1 20-228, looked up)
chain: GDELLNICMNAKHHKRVPSPEDKLYEECIPWKDNACCTLTTSWEAHLDVSPLYNFSLFHCGLLMPGCRKHFIQAICFYECSPNLGPWIQPVGSLGWEVAPSGQGERVVNVPLCQEDCEEWWEDCRMSYTCKSNWRGGWDWSQGENRCPKGAQCLPFSHYFPTPADLCEKTWSNSFKASPERRNSGRCLQKWFEPAQGNPNVAVARLFAS
modifications: biotinylated with the EZ link sulfo-NHS-LC-biotinylation kit (in the BLI assay only)

Kd [1]: 9100 nM
koff [1]: 0.349 s⁻¹
kon [1]: 40000 M⁻¹ s⁻¹
B7: L81A Juno_(20-228) (domain or fragment, human, UniProt A6ND01-1 20-228, looked up)
chain: GDELLNICMNAKHHKRVPSPEDKLYEECIPWKDNACCTLTTSWEAHLDVSPLYNFSLFHCGALMPGCRKHFIQAICFYECSPNLGPWIQPVGSLGWEVAPSGQGERVVNVPLCQEDCEEWWEDCRMSYTCKSNWRGGWDWSQGKNRCPKGAQCLPFSHYFPTPADLCEKTWSNSFKASPERRNSGRCLQKWFEPAQGNPNVAVARLFAS
modifications: biotinylated with the EZ link sulfo-NHS-LC-biotinylation kit (BLI)
